Test results taken from US20110093964A1 (COMMISSARIAT A L ENERGIE ATOMIQUE, published 2011).

Biological target: native bovine brain calmodulin (bovine, UniProt P62157 2-149)
Assay: tryptophan fluorescence of 5 uM MLCKp (excitation 280 nm) in 10 mM MES pH 6.5, one equivalent of calmodulin, no metals

- binding result: binds
B1: MLCKp peptide, 17 residues, derived from the calmodulin-binding domain of a rabbit muscle myosin light chain kinase (CALBIOCHEM) (peptide)
peptide: Ac-RRKWQKTGHAVRAIGRL-NH2
notes: Its tryptophan is the fluorescent probe of the assay; also called calmodulin ligand peptide; the ligand
